Reference: patent publication US20240425612A1 (published 2024)

How the values were obtained:
[1] = target: hFcγRIIIa-158V-streptavidin-His (human, UniProt P08637 17-208); test: BLI
[2] = target: hFcγRIIIa-158F-streptavidin-His (human, UniProt P08637 17-208); test: BLI
hFcγRIIIa-158F-streptavidin-His, sequence (P08637 17-208): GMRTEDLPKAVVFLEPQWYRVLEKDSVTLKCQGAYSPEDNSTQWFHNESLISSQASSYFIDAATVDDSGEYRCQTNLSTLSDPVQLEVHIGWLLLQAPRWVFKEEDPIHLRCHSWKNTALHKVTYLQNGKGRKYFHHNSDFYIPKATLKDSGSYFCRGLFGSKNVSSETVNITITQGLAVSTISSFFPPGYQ

hFcγRIIIa-158V-streptavidin-His, sequence (P08637 17-208 F176V): as the sequence (P08637 17-208) above, with F160V counted along it

Binder | Kd [1] [nM] | Kd [2] [nM]
Trastuzumab-MFc2 (antibody) Fc: DKTHTCPPCPAPELPGGPSVFLFPPKPKDTLMISRTPEITCVVVDVSHEDPEVKFNWYVDGVEVHNAKTKPREEQYNSTYRVVSVLTVLHRDWLNGKEYKCKVSNKALPAPEEKTISKAKGQPREPQVYTLPPSRDELTKNQVSLTCLVKGFYPSDIVVEWESNGQPENNYKTTPPVLDSDGSFFLYSKLTVDKSRWQQGNVFSCSVLHEALHNHYTQKSLSLSPGK | 63.9 | 56.8
Trastuzumab-MFc6 (antibody) Fc: DKTHTCPPCPAPELPGGPDVFLFPPKPKDTLMISRTPEVTCVVVDVSHEYPEVKFNWYVDGVEVHNAKTKPREEQYNGTYRVVSVLTVLHRDWLNGKEYKCKVSNKALPAPEEKTISKAKGQPREPQVYTLPPSRGELTKNQVSLTCLVKGFYPSDIAVEWESNGQPENNYKTTPPVLDSDGSFFLYSKLTVDKSRWQQGNVFSCSVLHEALHNHYTQKSLSLSPGK | 28.9 | 29.9

Next, values leading:

Kd [1] [nM] | Kd [2] [nM] | Binder
85 | 75.6 | Trastuzumab-MFc5 (antibody) Fc: DKTHTCPPCPAPELLGGPDVFLFPPKPMDTLMISRTPEVTCVVVDVSLEDPEVKFNWYVDGVEVHNAKTKPREEQYNSTYRVVSVLTVEHMDWLNGKEYKCKVSNKALPVPEEKTISKAKGQPREPQVYTLPPSRDELTKNQVSLTCLVKGFYPSDIAVEWESNGQPENNYKTTPPVLDSDGSFFLYSKLTVDKSRWQQGNVFSCSVLHEALHNHYTQKSLSLSPGK
32.4 | 38.5 | Trastuzumab-MFc3 (antibody) Fc: DKTHTCPPCPAPELLGGPDVFLFPPKPKDTLMISRTPEVTCVVVDVSLEDPEVKFNWYVDGVEVHNAKTKPREEQYNSTYRVVSVLTVLHRDWLNGKEYKCKVSNKALPVPEEKTISKAKGQPREPQVYTLPPSRDELTKNQVSLTCLVKGFYPSDIAVEWESNGQPENNYKTTPPVLDSDGSFFLYSKLTVDKSRWQQGNVFSCSVLHEALHNHYTQKSLSLSPGK
